Assays:
[1] = target: CD4 on the surface of CD4-expressing cells (host cell antigen complex comprising CD4) (human); test: cell-based or functional assay
[2] = target: rsCD4 preincubated with CC-CKR5 domain 3 peptide p2047a (human) (UniProt P51681); test: ELISA, rsCD4/CC-CKR5-D3 coated wells
[3] = target: recombinant soluble CD4 (rsCD4) (human); test: rsCD4 ELISA, purified B4 2 µg/mL, no competitor
[4] = target: CD4 on the surface of CD4-expressing cells (host cell antigen complex comprising CD4) (human); test: HPB-ALL cells pre-incubated with MAb 10 µg/mL; competitor biotinylated B4
[5] = target: recombinant soluble CD4 (rsCD4) (human); test: direct ELISA, rsCD4 wells pretreated with p1624a; B4-HRP 50 µg/mL, PBS instead of competitor
[6] = target: CD4 on the surface of CD4-expressing cells (host cell antigen complex comprising CD4) (human); test: indirect immunofluorescence, HPB-ALL cells
[7] = target: CD4 on the surface of CD4-expressing cells (host cell antigen complex comprising CD4) (human); test: indirect immunofluorescence, HPB-ALL cells pre-incubated with gp120 (competitor)
[8] = target: CD4 on the surface of CD4-expressing cells (host cell antigen complex comprising CD4) (human); test: HPB-ALL cells, biotinylated B4 0.71 µg/mL, no competitor
[9] = target: rsCD4 preincubated with CC-CKR5 domain 3 peptide p2047a (human) (UniProt P51681); test: ELISA, rsCD4 0.25 µg/mL preincubated with peptide, B4 0.1 µg/mL; against rsCD4 alone
[10] = target: rsCD4 preincubated with CC-CKR2b domain 2 peptide p2087a (human) (UniProt P41597); test: as above
[11] = target: rsCD4 preincubated with CC-CKR3 domain 4 peptide p2082a (human) (UniProt P51677); test: as above
[12] = target: rsCD4 preincubated with CC-CKR2b domain 3 peptide p2088a (human) (UniProt P41597); test: as above
Chain of rsCD4 preincubated with CC-CKR2b domain 3 peptide p2088a (human) (P41597 182-207, form in doubt): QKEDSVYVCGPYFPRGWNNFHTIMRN

[13] = target: CD4 on the surface of CD4-expressing cells (host cell antigen complex comprising CD4) (human); test: HPB-ALL cells, biotinylated B4 1:1000 + FITC-avidin, no competitor
[14] = target: CD4 on the surface of CD4-expressing cells (host cell antigen complex comprising CD4) (human); test: HPB-ALL cells pre-incubated with MAb 50 µg/mL, then gp120-FITC (competitor)
[15] = target: recombinant soluble CD4 (rsCD4) (human); test: competition ELISA, rsCD4 wells pretreated with p1624a; MAb 50 µg/mL; competitor B4-HRP 50 µg/mL
[16] = target: CD4 on the surface of CD4-expressing cells (host cell antigen complex comprising CD4) (human); test: SUP-T cells, biotinylated B4, no competitor
[17] = target: recombinant soluble CD4 (rsCD4) (human); test: rsCD4 ELISA
[18] = target: recombinant soluble CD4 (rsCD4) (human); test: ELISA, rsCD4-coated wells
[19] = target: rsCD4 preincubated with CC-CKR5 domain 3 peptide p2047a (human) (UniProt P51681); test: ratio of the rsCD4 IC50 values of the two ELISA inhibition assays

Chain of rsCD4 preincubated with CC-CKR5 domain 3 peptide p2047a (human) (P51681 168-199, form in doubt): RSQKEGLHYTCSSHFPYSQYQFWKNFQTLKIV

monoclonal antibody B4 showed a 50% Inhbt., HIV-1 primary isolate 23135, MT-2 Microplaque Neutralization Assay [1] of 0.21 µg/mL, a 50% Inhbt., HIV-1 primary isolate BR014, MT-2 Microplaque Neutralization Assay [1] of 0.19 µg/mL and a 50% end point for neutralization of HIV-1 primary isolate (23135) [1] of 0.21 µg/mL. The 90% Inhbt., HIV-1 primary isolate 23135, MT-2 Microplaque Neutralization Assay [1] was 1.54 µg/mL, the 90% Inhbt., HIV-1 primary isolate BR014, MT-2 Microplaque Neutralization Assay [1] was 1.63 µg/mL and the HIV-1 DH-12 (chimp PBL-grown), PBMC Infection Reduction Assay [1] was 3 logs killed. For the same substance, the HIV-1 DH-12, 50% Inhib, MT-2 Microplaque Assay [1] was 0.33 µg/mL, the HIV-1 DH-12, 90% Inhib, MT-2 Microplaque Assay [1] was 2.1 µg/mL and the HIV-2 287, PBMC Infectivity Reduction Assay with MAb B4 at 10 µg/mL [1] was 1.5 logs killed. For the same substance, the HIV-2 ROD, 50%, MT2 Microplaque Neutralization Assay [1] was 0.7 µg/mL, the HIV-2 ROD, 90%, MT2 Microplaque Neutralization Assay [1] was 8.5 µg/mL and the SHIV 89.6, 50%, p27 Antigen Neutralization Assay [1] was 0.088 µg/mL. For the same substance, the SHIV IIIB, 50%, p27 Antigen Neutralization Assay [1] was 0.679 µg/mL, the SIV239, 50%, p27 Antigen Neutralization Assay [1] was 1.3 µg/mL and the SIV251 (huPBMC), 80%, p27 Antigen Neutralization Assay [1] was 1 µg/mL. It also gave an SIV251, 50%, p27 Antigen Neutralization Assay [1] of 2 µg/mL, an endpoint binding concentration (OD492nm reading of 1.0) [2] of 0.1 µg/mL and an A492 nm [3] of 0.679 A492. It also gave a % Positive cells (biotinylated B4 staining) [4] of 0%, an Intensity of staining (biotinylated B4) [4] of 0 and an A492 nm [5] of 1.66 A492. It also gave a % of HPB-ALL cells reactive [6] greater than 90%, a % of cells reactive after prior binding of gp120 [7] greater than 90% and a % Positive cells [8] greater than 95%. For the same substance, the degree of enhancement of MAb B4-rsCD4 binding (grade 0 to 8) [9] was 5 +, the degree of enhancement of MAb B4-rsCD4 binding (grade 0 to 8) [10] was > 4 + and the degree of enhancement of MAb B4-rsCD4 binding (grade 0 to 8) [11] was 8 +. For the same substance, the degree of enhancement of MAb B4-rsCD4 binding (grade 0 to 8) [12] was > 4 +, the % Positive cells [13] was greater than 95% and the Intensity of staining [13] was 2. The % of cells stained by gp120-FITC after prior binding with MAb [14] was 0%, the % Inhibition [15] was 80% and the A492 nm (B4-HRP signal) [15] was 0.338 A492. The positive rate [16] was 95%, the A492 nm reactivity to rsCD4 [17] was 1.42 A492 and the endpoint binding concentration (OD492nm reading of 1.0) [18] was 2 µg/mL. For the same substance, the fold improvement of affinity over MAb B4 for rsCD4 alone [19] was 15 fold.
